From patent US20070092489A1
Values joined by “and” are separate entries in the source; they are usually repeats but may differ in a detail not shown here. Equal entries are not always repeated.

What was measured:
[1] = biological target: adenovirus fiber knob as shown on Av3GFP adenoviral vector particles; assay: cell-based or functional assay
[2] = biological target: adenovirus fiber knob as shown on Cy3-labeled adenoviral vector particles; assay: depletion of Cy3-labeled adenovirus from suspension by fluorimetry; D1 tethered on stainless steel
[3] = biological target: adenovirus fiber knob as shown on Cy3-labeled adenoviral vector particles; assay: depletion of Cy3-labeled adenovirus from suspension by fluorimetry; D1 tethered on nitinol
[4] = biological target: adenovirus fiber knob as shown on Cy3-labeled adenoviral vector particles; assay: depletion of Cy3-labeled adenovirus from suspension by fluorimetry; D1 tethered on Co/Cr alloy
[5] = biological target: adenovirus fiber knob as shown on Cy3-labeled adenoviral vector particles; assay: depletion of Cy3-labeled adenovirus; D1-tethered against anti-knob Ab-tethered metal surfaces

Substance	concentration required to achieve maximal GFP expression (Av3GFP transduction of SKOV-3 cells) [1]	amount of Ad bound per cm^2 of the surface [2]	amount of Ad bound per cm^2 of the surface [3]	amount of Ad bound per cm^2 of the surface [4]	fold greater adenovirus binding than the specific antibody (anti-knob Ab) [5]
D1-FGF2 fusion protein (CAR D1 ligated to basic fibroblast growth factor FGF2 by intein-mediated protein ligation) (from UniProt P78310 15-140; P09038 134-288)	14 nM				
thiol-containing form of the D1 domain of the coxsackie-adenovirus receptor (D1-Cys), covalently immobilized on a metal surface (from UniProt P78310 15-140)		1.08e+10 Ad per cm^2	1.16e+10 Ad per cm^2	1.51e+10 Ad per cm^2	2 fold and 4 fold
